Results on 5 substances are retold here after paper PMC2563026.

Assay [1] addresses CXCR4, endogenous on feline cells (feline (endogenous in MCC)) (UniProt P56498).
For assay [2] the target is unchanged. Nature of the assay: flow cytometry on cells; MCC cells stably transduced with fCD134, the CRD1 chimera, human CD134 or vector only were incubated with Fc-SU fusion proteins; bound protein detected with PE-anti-human IgG Fc; 10,000 events.
Assay [3] deals with chimeric receptor bearing feline CD134 CRD1 in the context of human CD134, on cells (feline | human).

Sequence of UniProt P56498 (P56498 whole entry, the tested form may be a part): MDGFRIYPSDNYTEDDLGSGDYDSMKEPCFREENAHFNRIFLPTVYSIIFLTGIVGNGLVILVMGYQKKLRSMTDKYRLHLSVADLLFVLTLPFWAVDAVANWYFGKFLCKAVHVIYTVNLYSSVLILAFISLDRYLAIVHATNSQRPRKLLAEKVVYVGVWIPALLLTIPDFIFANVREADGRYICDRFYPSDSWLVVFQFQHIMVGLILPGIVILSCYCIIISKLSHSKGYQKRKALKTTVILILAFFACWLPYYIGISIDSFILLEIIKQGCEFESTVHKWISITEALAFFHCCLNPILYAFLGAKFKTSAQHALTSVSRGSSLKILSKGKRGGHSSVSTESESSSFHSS

“FIV CPG41 Env, wild type, on HIV(FIV) luciferase pseudotypes (natural protein)” showed an entry of HIV(FIV) pseudotypes into MYA-1 cells with the CXCR4 antagonist AMD3100 at 0.1 μg/ml, fold reduction in assay [1] of 5 fold.

“FIV GL8 Env SU-Fc fusion protein, wild type”: the percent binding of Fc-SU (human CD134-expressing MCC cells) in assay [2] amounted to 17.2%.

The substance “FIV GL8 Env T271I, on HIV(FIV) luciferase pseudotypes (natural protein)” came in with an infection of MCC-CRD1 cells by HIV(FIV) luciferase pseudotypes, fold reduction in assay [3] of 27 fold.

Substance “FIV GL8 Env Δ2N double mutant (T271I and N342Y), on HIV(FIV) luciferase pseudotypes (natural protein)” showed an infection of MCC-CRD1 cells by HIV(FIV) luciferase pseudotypes, fold reduction in assay [3] of 47 fold.

“FIV GL8 Env, wild type, on HIV(FIV) luciferase pseudotypes (natural protein)”: the entry of HIV(FIV) pseudotypes into MYA-1 cells with the CXCR4 antagonist AMD3100 at 0.1 μg/ml, fold reduction in assay [1] was 100 fold. In assay [3], this substance showed an infection of MCC-CRD1 cells by HIV(FIV) luciferase pseudotypes, fold less efficient than on MCC cells expressing CD134 of 300 fold.
